Measurements reported in paper PMC4498601, “Two high-mobility group box domains act together to underwind and kink DNA”.

Biological target: T1, HMGB1 box A (Rattus norvegicus (rat), UniProt P63159 8-81)
T1 sequence: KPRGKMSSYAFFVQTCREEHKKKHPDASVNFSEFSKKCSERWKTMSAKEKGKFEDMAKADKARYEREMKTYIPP
Assay: X-ray crystallography; 2.0 A; 40 mM MgCl2, 50 mM sodium cacodylate pH 6.0, MPD; two box A per kinked duplex, one further duplex almost unbound; EMSA: 0.33x TBE (30 mM Tris-borate, 0.66 mM EDTA), 3% glycerol, 30 min incubation (temperature not stated), 6% native PAGE at 4 C; crystal complex: 1.6 mM protein, 0.8 mM DNA, about 1 h at 4 C
Settings: protein: recombinant; tags: GST tag removed by thrombin; chain copies: 2; blunt; self-complementary decamer, 2 copies of the strand

B1: d(ATATCGATAT)2 (dsDNA)
DNA 1: ATATCGATAT
DNA 2: ATATCGATAT
binding result: binds
